Experimental findings from patent publication US5442053A, “Salts and mixtures of hyaluronic acid with pharmaceutically active substances, pharmaceutical compositions containing the same and methods for administration of such compositions” (Fidia, S.p.A., priority 1983, dated 1995) are described below.

The assay has as its system corneal epithelium. The assay can be described thus: Healing activity of EGF vehicled in hyaluronic acid, epithelial lesion of rabbit cornea. In kind it is in vivo, rabbit (male albino New Zealand). Conditions: for healing of lesions in the corneal epithelium: single eye. How it is done:
The experiments were carried out on male albino New Zealand rabbits (average weight 1.8 kg). The animals, after a period of adaptation of about 5 days, underwent epithelial lesion of the cornea in suitable conditions of local anesthetic with Novesina (4%). The lesion consisted of a monocular scarification of a circular area in the optic zone effected by a concave glass cylinder (.phi. 3mm) with a sharp edge.
The animals were subdivided into groups, each group consisting of 5 animals, and subjected to pharmacological treatment by conjunctival instillation as follows:
Treatment was effected on the right eye (RE) by conjunctival instillation of 2 drops every 8 hours for 3 total administrations.
Healing of the corneal epithelium was evaluated by observation of the eye and photographic documentation with a slit lamp at various intervals after scarification: 0, 8 hours, 16 hours, 24 hours, 32 hours, 40 hours, and 48 hours.

B1: Epidermal growth factor (protein, UniProt P01133 23-1207, looked up)
Pro-epidermal growth factor: PQHWSCPEGTLAGNGNSTCVGPAPFLIFSHGNSIFRIDTEGTNYEQLVVDAGVSVIMDFHYNEKRIYWVDLERQLLQRVFLNGSRQERVCNIEKNVSGMAINWINEEVIWSNQQEGIITVTDMKGNNSHILLSALKYPANVAVDPVERFIFWSSEVAGSLYRADLDGVGVKALLETSEKITAVSLDVLDKRLFWIQYNREGSNSLICSCDYDGGSVHISKHPTQHNLFAMSLFGDRIFYSTWKMKTIWIANKHTGKDMVRINLHSSFVPLGELKVVHPLAQPKAEDDTWEPEQKLCKLRKGNCSSTVCGQDLQSHLCMCAEGYALSRDRKYCEDVNECAFWNHGCTLGCKNTPGSYYCTCPVGFVLLPDGKRCHQLVSCPRNVSECSHDCVLTSEGPLCFCPEGSVLERDGKTCSGCSSPDNGGCSQLCVPLSPVSWECDCFPGYDLQLDEKSCAASGPQPFLLFANSQDIRHMHFDGTDYGTLLSQQMGMVYALDHDPVENKIYFAHTALKWIERANMDGSQRERLIEEGVDVPEGLAVDWIGRRFYWTDRGKSLIGRSDLNGKRSKIITKENISQPRGIAVHPMAKRLFWTDTGINPRIESSSLQGLGRLVIASSDLIWPSGITIDFLTDKLYWCDAKQSVIEMANLDGSKRRRLTQNDVGHPFAVAVFEDYVWFSDWAMPSVMRVNKRTGKDRVRLQGSMLKPSSLVVVHPLAKPGADPCLYQNGGCEHICKKRLGTAWCSCREGFMKASDGKTCLALDGHQLLAGGEVDLKNQVTPLDILSKTRVSEDNITESQHMLVAEIMVSDQDDCAPVGCSMYARCISEGEDATCQCLKGFAGDGKLCSDIDECEMGVPVCPPASSKCINTEGGYVCRCSEGYQGDGIHCLDIDECQLGEHSCGENASCTNTEGGYTCMCAGRLSEPGLICPDSTPPPHLREDDHHYSVRNSDSECPLSHDGYCLHDGVCMYIEALDKYACNCVVGYIGERCQYRDLKWWELRHAGHGQQQKVIVVAVCVVVLVMLLLLSLWGAHYYRTQKLLSKNPKNPYEESSRDVRSRRPADTEDGMSSCPQPWFVVIKEHQDLKNGGQPVAGEDGQAADGSMQPTSWRQEPQLCGMGTEQGCWIPVSSDKGSCPQVMERSFHMPSYGTQTLEGGVEKPHSLLSANPLWQQRALDPPHQMELTQ
modifications: Pro-epidermal growth factor
notes: EGF (Epidermal growth factor), dissolved in saline (0.5 mg/5 ml)
B1: the “healing of lesions in the corneal epithelium” value runs as follows: (0 hours after scarification) “+”; (8 hours after scarification) “+”; (16 hours after scarification) “+”; (24 hours after scarification) “- and +”; (48 hours after scarification) “-”. Further, the animals healed (24 hours after scarification) is listed as 4/5.
